# Measured values taken from patent publication US20220251522.
# B1: PoSP:SUMF1^OPT:His:KDEL (protein)
# chain: MASSATTKSFLILFFMILATTSSTCAVDSQEAGTGAGAGSLAGSCGCGTPQRPGAHGSSAAAHRYSREANAPGPVPGERQLAHSKMVPIPAGVFTMGTDDPQIKQDGEAPARRVTIDAFYMDAYEVSNTEFEKFVNSTGYLTEAEKFGDSFVFEGMLSEQVKTNIQQAVAAAPWWLPVKGANWRHPEGPDSTILHRPDHPVLHVSWNDAVAYCTWAGKRLPTEAEWEYSCRGGLHNRLFPWGNKLQPKGQHYANIWQGEFPVTNTGEDGFQGTAPVDAFPPNGYGLYNIVGNAWEWTSDWWTVHHSVEETLNPKGPPSGKDRVKKGGSYMCHRSYCYRYRCAARSQNTPDSSASNLGFRCAADRLPTMDHHHHHHKDEL
# Target: T1, PoSP:SGSH^OPT:His
# T1 chain: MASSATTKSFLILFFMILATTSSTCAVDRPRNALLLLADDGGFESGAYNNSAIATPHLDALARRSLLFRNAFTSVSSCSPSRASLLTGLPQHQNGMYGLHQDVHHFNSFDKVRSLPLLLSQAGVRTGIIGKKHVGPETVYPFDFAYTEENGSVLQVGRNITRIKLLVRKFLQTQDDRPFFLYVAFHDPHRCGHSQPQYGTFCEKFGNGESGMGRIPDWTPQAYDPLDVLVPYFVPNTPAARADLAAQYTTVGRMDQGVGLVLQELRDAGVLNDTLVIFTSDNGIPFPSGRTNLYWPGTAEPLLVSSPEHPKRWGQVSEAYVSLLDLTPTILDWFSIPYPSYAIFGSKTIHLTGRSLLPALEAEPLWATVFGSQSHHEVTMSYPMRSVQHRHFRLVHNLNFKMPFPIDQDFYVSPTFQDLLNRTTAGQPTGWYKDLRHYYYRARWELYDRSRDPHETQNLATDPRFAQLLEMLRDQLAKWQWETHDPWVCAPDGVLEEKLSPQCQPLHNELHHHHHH
protein,measurement,value
B1,sulfamidase enzymatic activity,plant-made SGSH (S4 and S12) were enzymatically active only when SUMF1 was co-expressed
